Assay results as given in publication PMC7300195 (Frontiers in Immunology, 2020).

Assays:
Assay in all cases: BLI
Conditions in all cases: both partners purified
[1] = target: NiV G trimer: NiV G head domain residues 172-602 coupled to an N-terminal foldon domain (Nipah virus, Malaysia (AAK50545.1), UniProt Q9IH62)
[2] = target: hexameric NiV G: two G ectodomain headgroups linked by a foldon trimerization domain via short glycine linkers (Nipah virus, Malaysia (AAK50545.1), UniProt Q9IH62)
[3] = target: T1, NiV G ferritin 24-mer nanoparticle: NiV G ectodomain residues 172-602 linked to the C-terminus of ferritin … (Nipah virus, Malaysia (AAK50545.1), UniProt Q9IH62)
T1 construct: copies: 24

Measured: binding result

B1: m102.4 monoclonal antibody (HeV G-specific antibody), human IgG1/kappa (antibody, V domains shown)
VH: EVQVIQSGADVKKPGSSVKVSCKSSGGTFSKYAINWVRQAPGQGLEWMGGIIPILGIANYAQKFQGRVTITTDESTSTAYMELSSLRSEDTAVYYCARGWGREQLAPHPSQYYYYYYGMDVWGQGTTVTVSS
VL: EIVMTQSPGTLSLAPGERATLSCWASQSVRNNYLAWYQQKPGQAPRLVIYNGSTRATGIPDRFSGSGSGTDFTLTISRLDPEDFAVYYCQQYGNSRRVTFGGGTKVEIK
binds: [1] | [2] | [3]
